Measurements reported in PMC9144871 (International Journal of Molecular Sciences, 2022).

B1: S-plug2 (designed binder)
chain: SAMEEQAKFFLDKLQHELEDTQYQLLYKALALNKSQQEELQKQYKKTYDEYVTLAKKWAKAASSIPLNSITDEKLYKAMEKTASS
notes: also called thermo-stabilised S-plug; mutated form of S-plug
B2: S-plug3 (designed binder)
chain: SAMEEQAKFFLDKLQHELEDTQYQLLYKALALNKSQQEELQKQYKKTYDEYVTLAKKWAKAASSIPLNSITDEKLYKAMEKTASSPPGC
notes: also called S-plug2 with C-terminal arm PPGC; cysteine-locked S-plug
B3: S-plug (designed binder)
chain: STIEEQAKTFLDKFNHEAEDLFYQSSLASWNYNTNITEENVQNMNNAGDKWSAFLKEQSTLAQMYPLQEIQNQTVKQQLQALQQN
notes: also called prototype S-plug

How the values were obtained:
[1] = target: the molecule itself; experiment: SEC-MALS; analytical SEC-LS: Superdex 75 increase 10/30 with miniDAWN TREOS and refractive index detector; about 1.0 mg protein loaded; 50 mM Tris-HCl, 150 mM NaCl, 2.5% glycerol, pH 7.8; 0.5 mL/min
SARS-CoV-2 spike RBD-His [2] = target: T1, SARS-CoV-2 spike RBD-His (SARS-CoV-2, UniProt P0DTC2); experiment: SPR; conditions: both partners purified
[3] = target: the molecule itself; experiment: mass spectrometry; S-plug3 checked for its dimeric state by mass spectrometry; conditions not given
SARS-CoV-2 spike RBD-His [4] = target: T1, SARS-CoV-2 spike RBD-His; experiment: SPR; conditions: both partners purified; remark: listed apart in the source

Binder | stoichiometry N [1] | Kd (SARS-CoV-2 spike RBD-His [2]) [nM] | binding result [3] | Kd (SARS-CoV-2 spike RBD-His [4]) [nM]
B1 | 2 | 61.7 ± 2.3 | – | –
B2 | – | 39.5 ± 1.1 | binds | –
B3 | 2 | – | – | 50 to 200
